Several values for one entry are separate records, joined by “and”; a condition that tells them apart may be missing. Identical values can stand only once. Bridge positions count the residues as written; N and C are the ends. Ends that are not written are not given here.
Legend:
[1] = test system: frozen-thawed rooster sperm bound to an egg-membrane substrate; assay: BioPore Sperm-Binding Assay: percentage of sperm binding to an egg-membrane substrate; type: cell-based; conditions: 10 minutes at 37° C. exposure, 2 million sperm/well
Protocol: All three peptides were incubated at 0, 20 and 80 ng peptide/million sperm prior to evaluation. Ration % bound calculated as: % bound with Peptide / % bound for Control; and
We used the BioPore® Sperm-Binding Assay (Amann et al., 1999) to compare. percentage of sperm binding to an egg-membrane substrate (similar to Barbato et al., 1998) after brief in vitro exposure to three concentrations of a prior art peptide (Hammerstedt et al., 1997), representing each of two lots of peptide SEQ ID NO: 4 (after disulfide linking the cystine residues) or three concentrations of SEQ ID NO: 1 (after disulfide linking the cystine residues). Briefly, cryopreserved rooster semen (Gill et al., 1996) from broiler males (Barbato et al., 1998) was thawed, deglycerolated (Gill et al., 1996), and adjusted to provide a concentrated suspension of sperm in an appropriate salts buffer. We used one containing: 0.600 g sodium glutamate, 0.210 g potassium glutamate, 0.100 g glucose, 0.070 g sorbitol, 0.035 g magnesium sulfate, 0.210 g potassium acetate, 0.050 g potassium citrate, 0.700 g di-potassiumphosphate, 0.160 g mono-potassium phosphate, 0.800 g di-sodium phosphate, 0.100 9 potassium hydroxide, 0.300 g N,N -bis[2-hydroxyethyl]-2-aminoethanesulfonic acid, 0.400 g N-[2-hydroxyethyl]piperazine-N'-[2-ethanesulfonic acid], and 0.400 g N-tris[hydroxymethyl]methyl-2-aminoethanesulfonic acid, dissolved in distilled water to make 100 ml (Tajima et al., 1989). Aliquots of this suspension were placed in tubes containing one of the three peptide sequences at 0, 20 or 80 ng per million sperm. After mixing and 10 minutes incubation at 37° C., the suspensions were further diluted and assayed using 2 million sperm/well in the microwell assay plates. Plates were incubated at 32° C. for 60 min, after which unbound sperm were decanted, the wells washed, and the DNA in sperm bound to the egg-membranesubstrate in the microwell plates quantified (Barbato et al., 1998). […] With SEQ ID NO: 1, however, binding for suspensions exposed to either 20 or 80 ng/million sperm was greater, namely 1.20 and 1.22 the control value.

[2] = test system: White Leghorn hens inseminated with frozen-thawed rooster sperm; assay: Fertility trial: artificial insemination of hens with frozen-thawed rooster sperm exposed to peptide; type: in vivo, chicken
Excerpt: Each bar based on >425 eggs.
To compare fertility achieved after exposure of rooster sperm to SEQ ID NO: 4 and SEQ ID NO: 1, we used cryopreserved semen as in Example 1. To facilitate detection of benefit from peptides, we used a limited number of sperm for each artificial insemination. Pooled, deglycerolated semen (1 billion sperm/ml; at 0-4C.), in salts buffer as described in Example 1, was dispensed into tubes containing SEQ ID NO: 4 or SEQ ID NO: 1 to make nine suspensions: 0.0 (control), 0.2, 0.5, 1.0 or 2.0 μM and mixed. Artificial insemination of White Leghorn hens (40/group) was within 1 hour, and used 50 μl (50 million sperm). Eggs were collected daily, stored ≤7 d at 14C., incubated, and candled on day 7 (eggs with viable embryo were classed as fertile). Data resulting from four inseminations at 4-day intervals are shown (FIG. 2). It was concluded that both 0.2 and 0.5 μM SEQ ID NO: 4 improved fertility as did 0.2, 0.5, 1.0 and 2.0 μM SEQ ID NO: 1. […] The increase in fertility (above the control value) with the best concentration of SEQ ID NO: 1 (15.4 units at 2.0 μM) was 2.0× that with SEQ ID NO: 4 (7.8 units at 0.5 μM). Clearly, brief in vitro exposure of sperm to SEQ ID NO: 1 rather than SEQ ID NO: 4 before artificial insemination gave a greater increase in percentage of fertilized eggs over a greater range in concentration.

[3] = 20 ng peptide/million sperm, SEQ ID NO: 4 as 2 preparations (lots)

Molecule | binding relative to the value for the non-peptide control (ratio % bound with peptide / % bound for control) [1, 3] | binding relative to the value for the non-peptide control (ratio % bound with peptide / % bound for control) ([1]; 80 ng peptide/million sperm) | increase in fertility (above the control value) with the best concentration ([2]; 2.0 μM peptide, percentage of fertilized eggs, 50 million sperm, four inseminations at 4-day intervals) [units] | increase in fertility with best concentration relative to that with SEQ ID NO: 4 ([2]; SEQ ID NO: 1 at 2.0 μM vs SEQ ID NO: 4 at 0.5 μM) [×] | fold range of concentrations of benefit to fertility ([2]; tested 0.2, 0.5, 1.0, 2.0 μM) [fold]
CQSLQEYLAEQNQRQLESNKIPEVDLARVVAPFMSNIPLLLYPQDRPRSQPQPKANEDVC (disulfide 1-60) [SEQ ID NO: 4, reference compound] | 1.13 × and 1.17 × |  |  |  | 
Cys-Gln-Ser-Leu-Gln-Glu-Tyr-Leu-Ala-Glu-Gln-Asn-Gln-Arg-Gln-Leu-Glu-Ser-Asn-Lys-Ile-Pro-Glu-Val-Asp-Leu-Ala-Agr-Val-Val-Ala-Pro-Phe-Met-Ser-Asn-Ile-Pro-Leu-Leu-Leu-Tyr-Pro-Gln-Asp-Arg-Pro-Arg-Ser-Gln- … (peptide) CQSLQEYLAEQNQRQLESNKIPEVDLAAVVAPFMSNIPLLLYPQDRPRSQPQPKANEDVCVNHHHHHH | 1.20 × | 1.22 | 15.4 | 2.0 | ≥ 10
